Assay results from patent US20250277030A1, “ANTI-NAPI2B ANTIBODIES AND METHODS OF USE” (Zymeworks BC Inc., priority 2022, published 2025).

Tested on: ssDNA
Assay: NS-ELISA non-specific binding, ssDNA
Conditions: mAb at 100 nM
Method: The isoelectric point was measured by capillary isoelectric focusing (cIEF), the propensity for self-aggregation was measured by Affinity-capture self-interaction nanoparticle spectroscopy (AC-SINS) and non-specific binding was measured by NS-ELISA, as described below.
NS-ELISA was used to measure the propensity of the antibodies to bind to a range of biomolecules to emulate the undesirable non-specific interactions to biological matrices in vivo as described below.
NS-ELISA was carried out in Corning®96-well EIA/RIA Easy Wash™ Clear Flat Bottom Polystyrene High Bind Microplate coated overnight at 4° C. with 50 μL of Heparin (Sigma, H3149) diluted with 50 mM sodium carbonate pH 9.6 to a final concentration of 250 μg/mL. The plate was incubated for 2 days at room temperature, wells that were coated with heparin were not covered to allow air dry. […] Reactions were stopped after approximately 10 minutes by adding 100 μL of 1 M HCl to each well, and absorbance was read at 450 nm. Binding scores were calculated as the ratio of the ELISA signal of the antibody (antibody-treated) to the signal of a well containing buffer instead of the primary antibody (untreated). The cutoffs considered for each binding molecule (ssDNA, KLH, insulin, dsDNA and heparin) were internally calculated, based on the average of Zymeworks Inc. produced antibodies and antibodies benchmarks published in the literature.

B1: v29456: humanized anti-NaPi2b IgG1/kappa antibody H1L2; VH SEQ ID NO:24, VL SEQ ID NO:29 (antibody, V domains shown)
VH: QVQLVQSGAEVKKPGASVKVSCKASGFTFTSYNVHWVRQAPGQGLEWMGAISPGNGDLSYAQKFQGRVTMTRDTSTSTVYMELSSLRSEDTAVYYCARGRTGMGAVDYWGQGTLVTVSS
VL: DVQMTQSPSSLSASVGDRVTITCRASQDVYSYLNWYQQKPGKAVKLLIYYTSRLQSGVPSRFSGSGSGTDYTLTISSLQPEDFATYYCQQYNIFPWTFGQGTKLEIK
modifications: v29452, v29456, v29460 VH (H1); v29453, v29454, v29455, v29456 VL (L2)
NS-ELISA binding score (ratio of signal between antibody-treated and untreated), ssDNA: 1.06
